Two molecules from patent publication US20100291097A1 can be followed below.

Experiment [1] deals with Aβ1-28 peptide, biotinylated (Anaspec). The experiment is described as follows: ELISA, biotin-peptide on streptavidin, Ab 10 µg/ml; mean of 2, background subtracted. The settings on record: remark: other sources report otherwise. Background: An ELISA detects its analyte on a solid surface through an enzyme-linked reagent.
The target of experiment [2] is Peptide 23 of the Aβ1-42 overlapping peptide library. Kind of experiment: peptide library ELISA, Ab 10 µg/ml.
Experiment [3] deals with Peptide 32 of the Aβ1-42 overlapping peptide library. The experiment is described as follows: peptide library ELISA, Ab 10 µg/ml.
Experiment [4] deals with Peptide 8 of the Aβ1-42 overlapping peptide library. Kind of experiment: peptide library ELISA, Ab 10 µg/ml.
The target of experiment [5] is Peptide 12 of the Aβ1-42 overlapping peptide library. The experiment is described as follows: peptide library ELISA, Ab 10 µg/ml.
Experiment [6] has as its target Peptide 9 of the Aβ1-42 overlapping peptide library. The experiment is described as follows: peptide library ELISA, Ab 10 µg/ml.
Experiment [7] addresses Peptide 17 of the Aβ1-42 overlapping peptide library. The experiment is described as follows: peptide library ELISA, Ab 10 µg/ml.
For experiment [8], the target named is Peptide 2 of the Aβ1-42 overlapping peptide library. Kind of experiment: peptide library ELISA, Ab 10 µg/ml.
Experiment [9] deals with Peptide 13 of the Aβ1-42 overlapping peptide library. The experiment is described as follows: peptide library ELISA, Ab 10 µg/ml.
The target of experiment [10] is Peptide 10 of the Aβ1-42 overlapping peptide library. The experiment is described as follows: peptide library ELISA, Ab 10 µg/ml.
Experiment [11] concerns the target Peptide 11 of the Aβ1-42 overlapping peptide library. The experiment is described as follows: peptide library ELISA, Ab 10 µg/ml.
Experiment [12] deals with Peptide 26 of the Aβ1-42 overlapping peptide library. The experiment is described as follows: peptide library ELISA, Ab 10 µg/ml.
For experiment [13], the target named is Peptide 1 of the Aβ1-42 overlapping peptide library. The experiment is described as follows: peptide library ELISA, Ab 10 µg/ml.
Experiment [14] concerns the target Peptide 22 of the Aβ1-42 overlapping peptide library. Kind of experiment: peptide library ELISA, Ab 10 µg/ml.
The target in experiment [15] is Peptide 19 of the Aβ1-42 overlapping peptide library. Kind of experiment: peptide library ELISA, Ab 10 µg/ml.
Experiment [16] addresses Peptide 31 of the Aβ1-42 overlapping peptide library. The experiment is described as follows: peptide library ELISA, Ab 10 µg/ml.
Experiment [17] deals with Peptide 6 of the Aβ1-42 overlapping peptide library. Kind of experiment: peptide library ELISA, Ab 10 µg/ml.
Experiment [18] concerns the target Peptide 15 of the Aβ1-42 overlapping peptide library. Kind of experiment: peptide library ELISA, Ab 10 µg/ml.
In experiment [19] the target is Peptide 29 of the Aβ1-42 overlapping peptide library. Kind of experiment: peptide library ELISA, Ab 10 µg/ml.
Experiment [20] has as its target Peptide 27 of the Aβ1-42 overlapping peptide library. The experiment is described as follows: peptide library ELISA, Ab 10 µg/ml.
The target of experiment [21] is Peptide 24 of the Aβ1-42 overlapping peptide library. The experiment is described as follows: peptide library ELISA, Ab 10 µg/ml.
The target in experiment [22] is Peptide 28 of the Aβ1-42 overlapping peptide library. Kind of experiment: peptide library ELISA, Ab 10 µg/ml.
In experiment [23] the target is Peptide 14 of the Aβ1-42 overlapping peptide library. The experiment is described as follows: peptide library ELISA, Ab 10 µg/ml.
Experiment [24] addresses Peptide 25 of the Aβ1-42 overlapping peptide library. The experiment is described as follows: peptide library ELISA, Ab 10 µg/ml.
For experiment [25], the target named is Peptide 30 of the Aβ1-42 overlapping peptide library. Kind of experiment: peptide library ELISA, Ab 10 µg/ml.
Experiment [26] has as its target Peptide 20 of the Aβ1-42 overlapping peptide library. The experiment is described as follows: peptide library ELISA, Ab 10 µg/ml.
For experiment [27], the target named is Peptide 3 of the Aβ1-42 overlapping peptide library. Kind of experiment: peptide library ELISA, Ab 10 µg/ml.
In experiment [28] the target is Peptide 4 of the Aβ1-42 overlapping peptide library. The experiment is described as follows: peptide library ELISA, Ab 10 µg/ml.
In experiment [29] the target is Peptide 18 of the Aβ1-42 overlapping peptide library. Kind of experiment: peptide library ELISA, Ab 10 µg/ml.
In experiment [30] the target is Peptide 16 of the Aβ1-42 overlapping peptide library. Kind of experiment: peptide library ELISA, Ab 10 µg/ml.
Experiment [31] deals with Peptide 5 of the Aβ1-42 overlapping peptide library. Kind of experiment: peptide library ELISA, Ab 10 µg/ml.
The target in experiment [32] is Peptide 33 of the Aβ1-42 overlapping peptide library. The experiment is described as follows: peptide library ELISA, Ab 10 µg/ml.
The target in experiment [33] is Peptide 21 of the Aβ1-42 overlapping peptide library. The experiment is described as follows: peptide library ELISA, Ab 10 µg/ml.
The target of experiment [34] is Peptide 7 of the Aβ1-42 overlapping peptide library. The experiment is described as follows: peptide library ELISA, Ab 10 µg/ml.
A further experiment addresses Aβ1-42 peptide. Kind of experiment: cell-based or functional assay.

Chain of Aβ1-42 peptide (peptide, as listed by the source): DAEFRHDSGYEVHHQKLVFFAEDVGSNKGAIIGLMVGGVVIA
Chain of Aβ1-28 peptide, biotinylated (Anaspec) (chain, as listed by the source): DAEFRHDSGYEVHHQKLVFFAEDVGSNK

B1: ACI-11-Ab-9 monoclonal antibody (antibody, V domains shown)
VL: QAVVTQESALTTSPGGTVILTCRSSTGAVTTSNYANWVQEKPDHLFTGLIGGTSNRAPGVPVRFSGSLIGDKAALTITGAQTEDDAMYFCALWYSTHYVFGGGTKVTVL
VH: QVQLQQSDAELVKPGASVKISCKVSGYTFTDHTIHWMKQRPEQGLEWIGYIYPRDGSTKYNEKFKGKATLTADKSSSTAYMQLNSLTSEDSAVYFCARDYGYAFDYWGQGTTLTVSS
modifications: here or on the partner: biotinylated (position not given)
Molecule B1 came in with an O.D. in experiment [1] of 0.53 O.D.

B2: ACI-24-Ab-3 monoclonal antibody (antibody, IgG1, V domains shown)
VH: QVQLQQSGAELARPGASVKLSCKASGYTFTSYGIRWVKQRTGQGLEWIGEICPRSGNTYYNEKFKGKATVTADKSSSTAYMELRSLTSEDSAVYFCARSIYYGRPYYFDYWGQGTTLTVSS
VL: DIVMTQSQLFMSTSVGDRVSVTCKASQNVATNVAWYQQKPGQSPKALIYSASYRYSGVPDRFTGSGSGTDFTLTISNVQSEDLAEYFCQQYNSYPLTFGAGTKLELK
On to B2, for which the O.D. in [2] was found to be 0.2 O.D; in experiment [3] it was 0.31 O.D; in experiment [4], 0.21 O.D; in [5], 0.34 O.D; in experiment [6] it was 0.19 O.D; in experiment [7] it was 0.31 O.D. The O.D. was 0.26 O.D in [8]; 0.23 O.D in [9]; 0.2 O.D in experiment [10]; 0.23 O.D in experiment [11]; 0.25 O.D in experiment [12]; 0.32 O.D in experiment [13]. Further, the O.D. in experiment [14] amounted to 0.21 O.D; in experiment [15] it was 0.3 O.D; in [16], 0.31 O.D; in experiment [17], 0.34 O.D; in experiment [18], 0.32 O.D; in [19], 0.27 O.D. Moreover, the O.D. turned out to be 0.26 O.D in experiment [20]; 0.18 O.D in experiment [21]; 0.26 O.D in experiment [22]; 0.3 O.D in experiment [23]; 0.23 O.D in experiment [24]; 0.29 O.D in [25]. The O.D. came out at 0.22 O.D in experiment [26]; 0.37 O.D in experiment [27]; 0.36 O.D in experiment [28]; 0.3 O.D in [29]; 0.34 O.D in experiment [30]; 0.32 O.D in [31]. Also, the values for the O.D. in experiment [32], in experiment [33] and in [34] were 0.26 O.D, 0.21 O.D and 0.3 O.D, respectively. In addition, the disaggregation of pre-aggregated Aβ1-42, thioflavin T assay, molar ratio 1:10 with Aβ1-42 peptide was found to be 20%. In the experiment with Aβ1-42 peptide, the disaggregation of pre-aggregated Aβ1-42, thioflavin T assay, molar ratio 1:100 stood at 12%. For the same molecule, the inhibition of Aβ1-42 aggregation, thioflavin T assay, antibody to Aβ1-42 molar ratio 1:10 in the experiment with Aβ1-42 peptide came to 51%. Also, the inhibition of Aβ1-42 aggregation, thioflavin T assay, antibody to Aβ1-42 molar ratio 1:100 with Aβ1-42 peptide worked out at 26%.
